Laboratory results taken from the nanobody polyreactivity screen of Harvey et al. (2022).

Assay: yeast display, Sf9 membrane polyspecificity reagent, FACS + sequencing; frameworks hold sequencing errors
Method in brief: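 Galactose-induced (36–48 hours) yeast carrying a synthetic nanobody display library were exposed to 10% biotinylated, detergent-solubilized Sf9 membrane reagent at 4 °C for 1 hour. FACS followed streptavidin microbead enrichment, using low and high (top ~1%) gates for expression (anti-HA) and reagent binding (streptavidin). Colony PCR, MiSeq 2 × 250 sequencing and CDR-length filtering followed. Labels for polyreactivity reflect the gate of origin.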

## QVQLVESGGGLVQAGGSLRLSCAASGIIFRSYAMGWYRQAPGKERELVAGISLSGGSTYYADSVKGRFTISRDNAKNTVYLQMNSLKPEDTAVYYCATRNHYFRALRYGYCGQGTQVTVSS
  polyreactivity (PSR sort gate): high polyreactivity

## QVQLVESGGGLVQAGGSLRLTCAASGSTFRLYAMGWYRQAPGKERELVAGISRTGTSTYYADSVKGRFTISRDNAKTTVFLQMNSLKPEDTAVYYCAASIGGGSYWGQGTQLTVSS
  polyreactivity (PSR sort gate): high polyreactivity

## QVQLVESGGGLVQAGGSLSLSCAASGSSFGGYTMGWYRQAPGKERELVAAISRRGGNTYYADSVKGRFTISRDNAKNTVYLQMNSLNPEETAVYYCAVRWPSARIPVKLDYWGQGTQVTVSS
  polyreactivity (PSR sort gate): high polyreactivity

## QVQLVESGGGLVQAGGSLLLSCAAAGSIFRTYAMGWYRQAPGKERELVAAISRSGSSTYYADSVKGRFTISRDNAKNTVYFQMNSLKPEDTAVYYCAALVRKYGVDYWGQGTQVTVSS
  polyreactivity (PSR sort gate): high polyreactivity

## QAQLQESGGSLVQAGGGLRLSCAASGYISVGSVMGWYRQAPSKERELVASIDQGANTNYADSVKGRFTISRNNAKNNVYLQMNSLKTEDTAVYYCATETTYILNYCGQGTQVTVSS
  polyreactivity (PSR sort gate): low polyreactivity

## QVQLVESGGGLVQARGSLRLSCAASVRTICNNAMGWYREAPGKERELVAANTSTASRTYYADSEKGRFTISRDNAKNTVYLQMNSLKPEDTAVYYCNRVSHLDYYWGQGTQVTVSS
  polyreactivity (PSR sort gate): high polyreactivity

## QVQLVESGGGLVQAGGSLRLSCAASGSILLYYVMGWYRQAPGKERELVAGISSSGRTYYADSVKGRFTISRDNAKNTVYLQMNSLKPEDTAVYYSAKKYWRGDVRVGYWGQGTQVTVSS
  polyreactivity (PSR sort gate): high polyreactivity

## QVHLVESGGGLVQAGGSLRLSCAASGRTIRLNVMGWYRQAPGKERELVAAITRSVGSTYYADSVKGRFTISRDYAKNTVYLQMNSLKPEDTAVYYCNAVRSRYYDDYDYWGQGTQVTVSS
  polyreactivity (PSR sort gate): high polyreactivity

## QVQLVESGGGLVQAGGSLRLSCAASGSTFEHYAMGWYRQAPGKERELVAAITRRGGSTYYADSVKGRFTISSDNAKNTVYLQMNSLKPEDTAVYYCYTVLRYSYYLPGYDYWGQGTQVTVSS
  polyreactivity (PSR sort gate): high polyreactivity

## QVQLVESGGGLVQAGGSFRLSCAASGSIFDGYAMGWYRQAPGTERELVAAISSGGDSTYYADSVKGRFTISRDNAKNTVYLQMNSLKPEDTAVYYCNADSLVGHSYDYWGQGTQVTVSS
  polyreactivity (PSR sort gate): low polyreactivity

## QVQLVESGGGLVQAGGSLRLSCAASGSTFIYNTMGSYRQAPGKERELVATNTDSSDSTNYADSVKGRFTISRDNAKNTVYLQMNSLKPEDTAVYYCAADGEVDIATYPSQITDYDYWGQGTQVTVSS
  polyreactivity (PSR sort gate): low polyreactivity

## QVQLVESGGGLVQAGGSLRLSCAASGRTFPSYAMGWYRQAPGKERELVAAITTSGGSTYYADSVKGRFTISRDNAKNTVYLQMNSLKPEDTAVYYCAAAKPYSGSQYYYWGQGTQVTVSS
  polyreactivity (PSR sort gate): high polyreactivity

## QVQLVESGGGLVQAGGSLRLSCAASGMTFSKYVMGWYRQAPGKERELVAAITWSGGRTYYADSVKGRFTISRDNAKNTVYLQMNSLKPEDTAVYYCNSKLKGLGYEYDYWGQGTQVTVSS
  polyreactivity (PSR sort gate): high polyreactivity

## QVQLVESGGALVQAGGSLRLSCAPSGFTFMRYAMGWYRQAPGKERELDAAIRGTGTSTYYADSVKVRFTISRDNAKNTVYLQMNSLNPEDTAVYYCNKVAGRSPYTRYDYWAQGTQVTVSS
  polyreactivity (PSR sort gate): low polyreactivity

## QVQLVESGGGLFQAGGSLRLSCAASGFTFNRNAMGWYRQAPGKERELVAAISWSGGSTYYADSVKGRFTISRDNAKNPVYLQMNSLKPEDTAVYYCAKGYRRVYGPFYYWGQGTQVTVSS
  polyreactivity (PSR sort gate): low polyreactivity

## QVQLVESGGGLVQAGGSLRLSCAASGFIFYYYAMGWYRQAPGKERELVAAISSRGGITYYADSVKGRFTISRDNAKNTVYLQMNSLKPEDTAVYYCAVDFRPGYDYWGQGTQVTVSS
  polyreactivity (PSR sort gate): low polyreactivity

## QVQLVESAGGLVQAGGSLRISCAASGSIFYYYAMGWYRQAPGKERELLAAIDSGGSTYYADSVKGRFTISRDNAKNTVYLQMNSLKPEDTAVYYCAADTYWFVYYGYDYWGQGTQVTVSS
  polyreactivity (PSR sort gate): low polyreactivity

## QVQLVESGGGLVQAGGSLRLSWAASGSIFQDYAMGWYRQAPGKERDLVAAISSSGTSTYYADSVKGRCTISRDNAKNTVSLQMNSLQPEDTAVFYCAAPPGRVARYDYWGQGTQVTVSS
  polyreactivity (PSR sort gate): low polyreactivity

## QVQLVESGGGLVQAGGSLRLSCAASGRTFVPYAMGWYRQAPGKERELVATNNRSGGTTYYADSVKGRFTISRDNAKNTVYLQMNSLKPEDTAVYYCNKSPYYTVWSTRGNQFSRFYYWGQGTQVTVSS
  polyreactivity (PSR sort gate): high polyreactivity

## QVQLVESGGGLVQAGGSLRLSCAASGSTFRYNSMGWYRQAPGKDRELVAAISRIGGTTYADSVKGRFTISRDNAKNTVYLQMNSLNPEDTAVYYCARANWGYYGPEYGYWGQGTQVTVSS
  polyreactivity (PSR sort gate): high polyreactivity

## QVQLVESGGGLVQAGGSLRLSCAASGRTGSYAMGWYRQAPGQERELVAAISRRGANTYYADSVKGRFTISRDNAKNTVYLQMNSLKPEVTAVYYCAVPHLYSRVEYDYWGQGSQVTVSS
  polyreactivity (PSR sort gate): high polyreactivity
